# Patent publication US20250289861A1 (IMMUNOFORGE, published 2025)
# Substitutions are numbered along the chain they refer to. Names may count otherwise.
# B1: PF1802_M021 (GLP1-Fc-mut.IGF1) (Fc fusion)
# chain: HGEGTFTSDVSSYLEEQAAKEFIAWLVKGGGGSAPAPGGGGSDKTHTCPPCPAPELLGGPSVFLFPPKPKDTLMISRTPEVTCVVVDVSHEDPEVKFNWYVDGVEVHNAKTKPREEQYASTYRVVSVLTVEHMDWLNGKEYKCKVSNKALPAPIEKTISKAKGQPREPQVYTLPPSREEMTKNQVSLTCLVKGFYPSDIAVEWESNGQPENNYKTTPPVLDSDGSFFLYSKLTVDKSRWQQGNVFSCSVLHEALHNHYTQKSLSLSPGKGGGGSGGGGSGGGGSGGGGSGAHSGPATLCGAELVDALQFVCGDRGFYFNKPTGYGSSSRRAPQTGIVDECCARSCDLRRLEMYCAPLKPTKST
# notes: M008 with a half-life-increasing Fc: N297A, L309E, Q311M, M428L
# B2: PF1802_M022 (GLP1-Fc-mut.IGF1) (Fc fusion)
# chain: B1 chain with M133W
# notes: M008 with a half-life-increasing Fc: N297A, L309E, Q311W, M428L
# B3: PF1802_M020 (GLP1-Fc-mut.IGF1) (Fc fusion)
# chain: B1 chain with E131Y
# notes: M008 with a half-life-increasing Fc: N297A, L309Y, Q311M, M428L
# Target: T1, Human FcRn-GST protein (human, UniProt P55899 24-297; P61769 21-119, limits assumed)
# T1 construct: not shown: GST tag
# Experiment: ELISA at pH 6.0: fusion protein coated on the plate, Human FcRn-GST titrated (x axis, ug/ml), anti-GST Ab-HRP, A450
# Description: To investigate the binding affinity of the PF1802_M020, M021, and M022 substances, obtained by introducing three types of blood half-life-increasing Fc to the PF1802-M008 candidate substance, to human FcRn, ELISA was performed, and to investigate the difference in binding affinity depending on pH, two situations at pH 6.0 and pH 7.4 were prepared, respectively. Specifically, each of the PF1802_M020, M021, and M022 substances was coated at 4 μg/mL on a 96 well immunoplate, and reacted with PBS (pH 6.0 and 7.4) containing 4% skim milk at room temperature for 1 hour to block non-specific binding. Thereafter, the Human FcRn-GST protein was diluted 4-fold from a maximum concentration of 5 μg/mL to 0.0003 μg/mL using PBS (pH 6.0, 7.4) containing 1% skim milk, and then dispensed into each well, followed by incubation at room temperature for 1 hour.
row,EC50 (read off the curve),Binder
1,~0.03 µg/mL,B1
2,~0.03 µg/mL,B2
3,~0.04 µg/mL,B3
